# Laboratory results from paper PMC2527117 (The Journal of Biological Chemistry, 2008).
# B1: PfUIS3 soluble domain (residues 83-229) (domain or fragment, Plasmodium falciparum, UniProt Q8IEU1 83-229, looked up)
# chain: YYGYKKSREDDLYYNKYLEYRNGEYNIKYQDGAIASTSEFYIEPEGINKINLNKPIIENKNNVDVSIKRYNNFVDIARLSIQKHFEHLSNDQKDSHVNNMEYMQKFVQGLQENRNISLSKYQENKAVMDLKYHLQKVYANYLSQEEN
# Biological target: the molecule itself
# Experiment: SEC
protein,measurement,value
B1,stoichiometry N,2
